According to publication PMC11514458:

Tests used:
RAD51 [1] = target: T1, RAD51 (UniProt Q06609 1-339); assay: stopped-flow fluorescence (global fit); initial weak binding step; 2 mM ATP, 5 mM Mg2+; EMSA: 20 mM Tris-HCl pH 7.5, 2 mM MgCl2, 2 mM ATP, 37 C, 20 nM DNA, glutaraldehyde fixation; stopped-flow: 25 mM Tris-HCl pH 7.5, 5 mM MgCl2, 50 mM KCl, 2 mM ATP, 0.5 mM EDTA, 10% glycerol, 37 C; BLI: 50 mM Tris-HCl pH 7.5, 2 mM ATP, 50 mM KCl, 5 mM MgCl2, 0.05% Tween 20, room temperature; conditions: protein: recombinant; chain copies: 10; label: Cy3 at 3' or 5'
T1 sequence (Q06609 whole entry): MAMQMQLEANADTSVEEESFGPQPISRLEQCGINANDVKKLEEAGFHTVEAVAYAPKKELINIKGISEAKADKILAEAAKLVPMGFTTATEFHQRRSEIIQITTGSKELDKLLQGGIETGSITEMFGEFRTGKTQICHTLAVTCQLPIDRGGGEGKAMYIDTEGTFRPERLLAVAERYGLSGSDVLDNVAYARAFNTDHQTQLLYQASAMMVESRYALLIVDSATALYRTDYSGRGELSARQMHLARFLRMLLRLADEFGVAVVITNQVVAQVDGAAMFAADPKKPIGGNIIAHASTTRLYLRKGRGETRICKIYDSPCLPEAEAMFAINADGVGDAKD

BCDX2 complex [2] = target: T2, BCDX2 complex (human, UniProt O15315;O43502;O75771;O43543 1-384;1-376;1-328;1-280); assay: stopped-flow fluorescence (total amplitude); Kd,net two-step; ATP, Mg2+; EMSA: 20 mM Tris-HCl pH 7.5, 2 mM MgCl2, 2 mM ATP, 37 C, 20 nM DNA, glutaraldehyde fixation; stopped-flow: 25 mM Tris-HCl pH 7.5, 5 mM MgCl2, 50 mM KCl, 2 mM ATP, 0.5 mM EDTA, 10% glycerol, 37 C; BLI: 50 mM Tris-HCl pH 7.5, 2 mM ATP, 50 mM KCl, 5 mM MgCl2, 0.05% Tween 20, room temperature; conditions: protein: recombinant; tags: Strep-tag and His-tag (XRCC2 N-terminal His); copies: 1;1;1;1; label: Cy3 at 3' or 5'
T2 sequence 1: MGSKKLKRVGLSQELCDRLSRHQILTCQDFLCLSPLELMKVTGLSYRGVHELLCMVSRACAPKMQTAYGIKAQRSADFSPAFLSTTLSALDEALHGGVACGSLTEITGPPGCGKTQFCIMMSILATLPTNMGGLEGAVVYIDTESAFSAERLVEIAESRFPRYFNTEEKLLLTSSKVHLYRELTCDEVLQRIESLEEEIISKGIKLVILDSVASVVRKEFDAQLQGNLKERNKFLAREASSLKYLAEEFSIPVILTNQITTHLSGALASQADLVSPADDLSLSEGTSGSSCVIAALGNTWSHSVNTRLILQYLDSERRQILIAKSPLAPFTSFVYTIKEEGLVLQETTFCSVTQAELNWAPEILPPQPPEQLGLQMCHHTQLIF
T2 sequence 2: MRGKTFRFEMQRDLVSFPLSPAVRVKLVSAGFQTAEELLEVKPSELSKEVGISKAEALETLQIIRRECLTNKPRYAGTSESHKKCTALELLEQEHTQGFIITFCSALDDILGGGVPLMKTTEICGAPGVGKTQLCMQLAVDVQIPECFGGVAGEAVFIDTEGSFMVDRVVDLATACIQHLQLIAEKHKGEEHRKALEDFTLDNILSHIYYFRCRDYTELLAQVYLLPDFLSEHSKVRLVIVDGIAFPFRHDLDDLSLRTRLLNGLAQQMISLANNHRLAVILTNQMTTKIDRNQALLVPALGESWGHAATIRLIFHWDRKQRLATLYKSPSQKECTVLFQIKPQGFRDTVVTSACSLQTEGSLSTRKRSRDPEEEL
T2 sequence 3: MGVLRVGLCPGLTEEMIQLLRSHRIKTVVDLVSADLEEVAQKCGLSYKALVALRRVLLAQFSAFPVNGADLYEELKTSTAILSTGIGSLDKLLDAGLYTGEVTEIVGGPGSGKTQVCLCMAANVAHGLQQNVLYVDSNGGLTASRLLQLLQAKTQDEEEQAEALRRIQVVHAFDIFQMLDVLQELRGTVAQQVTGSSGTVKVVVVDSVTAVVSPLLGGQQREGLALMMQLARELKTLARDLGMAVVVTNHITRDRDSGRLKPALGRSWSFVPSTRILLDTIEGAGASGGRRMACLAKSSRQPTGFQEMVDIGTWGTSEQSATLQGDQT
T2 sequence 4: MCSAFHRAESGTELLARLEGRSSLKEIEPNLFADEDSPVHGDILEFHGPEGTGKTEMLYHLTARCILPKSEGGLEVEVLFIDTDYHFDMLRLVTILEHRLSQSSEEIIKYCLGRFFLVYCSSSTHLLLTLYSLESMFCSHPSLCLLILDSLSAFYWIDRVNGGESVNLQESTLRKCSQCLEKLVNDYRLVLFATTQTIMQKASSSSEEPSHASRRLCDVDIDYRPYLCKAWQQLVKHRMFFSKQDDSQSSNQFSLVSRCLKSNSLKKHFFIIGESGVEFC

BCDX2 complex [3] = target: T2, BCDX2 complex; assay: stopped-flow fluorescence (amplitude, A1); Kd,1 initial complex; ATP, Mg2+; EMSA: 20 mM Tris-HCl pH 7.5, 2 mM MgCl2, 2 mM ATP, 37 C, 20 nM DNA, glutaraldehyde fixation; stopped-flow: 25 mM Tris-HCl pH 7.5, 5 mM MgCl2, 50 mM KCl, 2 mM ATP, 0.5 mM EDTA, 10% glycerol, 37 C; BLI: 50 mM Tris-HCl pH 7.5, 2 mM ATP, 50 mM KCl, 5 mM MgCl2, 0.05% Tween 20, room temperature; conditions: protein: recombinant; tags: Strep-tag and His-tag (XRCC2 N-terminal His); copies: 1;1;1;1; label: Cy3 at 3' or 5'
RAD51;BCDX2 complex = RAD51;BCDX2 complex (human?;human, UniProt Q06609;O15315;O43502;O75771;O43543 1-339;1-384;1-376;1-328;1-280, |); assay: stopped-flow fluorescence (global fit); RAD51 binding in presence of BCDX2; ATP, Mg2+; EMSA: 20 mM Tris-HCl pH 7.5, 2 mM MgCl2, 2 mM ATP, 37 C, 20 nM DNA, glutaraldehyde fixation; stopped-flow: 25 mM Tris-HCl pH 7.5, 5 mM MgCl2, 50 mM KCl, 2 mM ATP, 0.5 mM EDTA, 10% glycerol, 37 C; BLI: 50 mM Tris-HCl pH 7.5, 2 mM ATP, 50 mM KCl, 5 mM MgCl2, 0.05% Tween 20, room temperature; conditions: protein: recombinant;recombinant; tags: ;Strep-tag and His-tag (XRCC2 N-terminal His); copies: 1;1;1;1;1; label: Cy3 at 3' or 5'
RAD51;BCDX2 complex, sequence (Q06609 whole entry, one chain of several): as the sequence (Q06609 whole entry) above

RAD51 [4] = target: T1, RAD51; assay: stopped-flow fluorescence (Hill); Kd,1; ATP, Mg2+; EMSA: 20 mM Tris-HCl pH 7.5, 2 mM MgCl2, 2 mM ATP, 37 C, 20 nM DNA, glutaraldehyde fixation; stopped-flow: 25 mM Tris-HCl pH 7.5, 5 mM MgCl2, 50 mM KCl, 2 mM ATP, 0.5 mM EDTA, 10% glycerol, 37 C; BLI: 50 mM Tris-HCl pH 7.5, 2 mM ATP, 50 mM KCl, 5 mM MgCl2, 0.05% Tween 20, room temperature; conditions: protein: recombinant; chain copies: 10; label: Cy3 at 3' or 5'
RAD51 [5] = target: T1, RAD51; assay: stopped-flow fluorescence (global fit); RAD51 without BCDX2; ATP, Mg2+; EMSA: 20 mM Tris-HCl pH 7.5, 2 mM MgCl2, 2 mM ATP, 37 C, 20 nM DNA, glutaraldehyde fixation; stopped-flow: 25 mM Tris-HCl pH 7.5, 5 mM MgCl2, 50 mM KCl, 2 mM ATP, 0.5 mM EDTA, 10% glycerol, 37 C; BLI: 50 mM Tris-HCl pH 7.5, 2 mM ATP, 50 mM KCl, 5 mM MgCl2, 0.05% Tween 20, room temperature; conditions: protein: recombinant; chain copies: 10; label: Cy3 at 3' or 5'
BCDX2 complex [6] = target: T2, BCDX2 complex; assay: stopped-flow fluorescence (global fit); initial complex k1/k-1; 2 mM ATP, 5 mM Mg2+; EMSA: 20 mM Tris-HCl pH 7.5, 2 mM MgCl2, 2 mM ATP, 37 C, 20 nM DNA, glutaraldehyde fixation; stopped-flow: 25 mM Tris-HCl pH 7.5, 5 mM MgCl2, 50 mM KCl, 2 mM ATP, 0.5 mM EDTA, 10% glycerol, 37 C; BLI: 50 mM Tris-HCl pH 7.5, 2 mM ATP, 50 mM KCl, 5 mM MgCl2, 0.05% Tween 20, room temperature; conditions: protein: recombinant; tags: Strep-tag and His-tag (XRCC2 N-terminal His); copies: 1;1;1;1; label: Cy3 at 3' or 5'

In the case of TTTTTTTTTTTTTTTTTTTTTTTTTTTTTTTTTTTTTTTTTTT (ssDNA) [Cy3-dT43], the Ka (RAD51 [1]) is reported as 0.09 µM⁻¹, the Kd (BCDX2 complex [2]) is reported as 220 ± 20 nM and the Kd (BCDX2 complex [3]) is reported as 310 ± 50 nM. For the same binder, the Ka (RAD51;BCDX2 complex) was 0.064 nM⁻¹, the Kd (RAD51 [4]) was 1600 ± 200 nM and the Ka (RAD51 [5]) was 0.026 nM⁻¹. For the same binder, the Ka (BCDX2 complex [6]) was 3.1 µM⁻¹.
